The series deals with MS2 coat protein. The series is described as follows: apparent KD of MS2 coat protein; designed switch direction (-1 OFF switch, 1 ON switch): -1; higher = weaker reporter binding. Summed up:
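The apparent KD reported per design is the median over clusters of curve fits to normalised cluster fluorescence. The RNA switches were transcribed on Illumina chips by stalled E. coli RNA polymerase. SNAP-549-labelled MS2 coat protein was titrated from 0.7 or 1.5 nM, doubling up to 3 µM, in Tris-HCl pH 7.5 buffer containing KCl, MgCl2, BSA, DTT, tRNA and Tween-20, with no input, 200 uM small-molecule ligand, or an oligonucleotide input.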

Setting [1] is: input ligand: microRNA oligo, concentration not stated.
The mark [2] stands for this setting: Eterna round: R95, input ligand: FMN 200 uM.
[3] abbreviates: Eterna round: R95, input ligand: microRNA oligo, concentration not stated.
Where [4] appears, read: Eterna round: R95, input ligand: none.

The values that follow come from the supplement of paper PMC9170038.

In the case of “AUAGUAGAAGUGAGGAUAUCGUAGAUUUUAGGAAACGAGAAGGCACAUGAGGAUCACCCAUGUAAGAUGGAGGU [JR_BMOE4_Sub051] (Eterna round: R96, puzzle: Brourd's mod of Exclusion 4)”, the “apparent KD of MS2 coat protein” value (input ligand: FMN 200 uM) amounted to 380 nM, the “apparent KD of MS2 coat protein” value under setting [1] was 126 nM and the “apparent KD of MS2 coat protein” value (input ligand: none) worked out at 132 nM.
For “AUAGUAGAAGUGAGGAUAUCGUAGAUUUUAGGAAACGAGAAGGCACAUGAGGAUCACCCAUGUAAGAUGGAGGU [JR_BMOE4_Sub051] (puzzle: Brourd's mod of Exclusion 4)”, the “apparent KD of MS2 coat protein” value under setting [2] was 104 nM, the “apparent KD of MS2 coat protein” value under setting [3] was determined as 263 nM and the “apparent KD of MS2 coat protein” value under setting [4] was found to be 124 nM.
For the sequence “AUAGUCUGGCAAGGAUAUAGGAAAGGAAGUGUACUAGAAGGUGCGCAGACAUGAGGAUCACCCAUGUGAGCCGACGAAAUAAUA [PowerStrip EXNG 1.17] (Eterna round: R96, puzzle: Exclusion NG 1)”, the “apparent KD of MS2 coat protein” value is, setting by setting: (input ligand: FMN 200 uM) 523 nM; under setting [1], 88.5 nM; (input ligand: none) 141 nM.
In the case of “AUAUAACAUGAGGAUCACCCAUGUGAGGAUAUGCGAUAUAUAAUAAUAAUAAUAAUAAGCAGAAGGCACAAAAU [My FIrst Design] (puzzle: Exclusion 1)”, the “apparent KD of MS2 coat protein” value is, setting by setting: under setting [2], 60.2 nM; under setting [3], 78.7 nM; under setting [4], 71.7 nM.
With “AUAUACGGAGGAUAUACUUGAGGAUCACCCAAGUGGGAUCCCGUUUGGGCGGUAAAUAGUAGAAGGCCGACCCA [jl-ex3-4.41 ViennaUCT mod] (Eterna round: R97, puzzle: Exclusion 3)”, the “apparent KD of MS2 coat protein” value stood at 31.3 nM (input ligand: FMN 200 uM) and 29 nM (input ligand: none).
“AUAUACGUUGAGGAUAUGCGAAUAAGUAUAGUUGCAGAAGGCGACACAUGAGGAUCACCCAUGUUCAUGGACAC [LRO-Ex6-03] (puzzle: Exclusion 6)”: under setting [3], the “apparent KD of MS2 coat protein” value stood at 26.6 nM.
In the case of “AUAUAGCGAGGAUAUACAUGAGGAUCACCCAUGUGGUAGUAGAUACGGUAGGGCUAGUGUAGAAGGUGCUAUGA [EX3 #12] (Eterna round: R97, puzzle: Exclusion 3)”, the “apparent KD of MS2 coat protein” value is, setting by setting: (input ligand: FMN 200 uM) 450 nM; (input ligand: none) 231 nM.
For the sequence “AUAUAGUCAGGAUAUCGAAGUGUGUGUUGGUUUGUAAUUUACGAGAAGGGACAUGAGGAUCACCCAUGUAGGAA [JR_Exclusion4)Sub002] (Eterna round: R96, puzzle: Exclusion 4)”, the “apparent KD of MS2 coat protein” value by setting is: (input ligand: FMN 200 uM) 49.3 nM; under setting [1], 33.8 nM; (input ligand: none) 44.1 nM.
Turning to “AUAUAGUCAGGAUAUCGAAGUGUGUGUUGGUUUGUAAUUUACGAGAAGGGACAUGAGGAUCACCCAUGUAGGAA [JR_Exclusion4)Sub002] (puzzle: Exclusion 4)”, the “apparent KD of MS2 coat protein” value under setting [3] was determined as 35.8 nM.
On the same count and under the same terms, under “AUAUAUAGUGUGAGGAUAUGCUGGUCCUUGGAUCAGCAGAAGGCACAUGAGGAUCACCCAUGUAGUUAAAUAUA [Mat - Exclusion 4 - JL Mod - D19] (puzzle: Brourd's mod of Exclusion 4)” stands 32.1 nM; under “AUAUAUAGUGUGAGGAUAUGCUGGUCCUUGGAUCAGCAGAAGGCACAUGAGGAUCACCCAUGUAGUUUAUUUUG [Mat - Exclusion 4 - JL Mod - D6] (puzzle: Brourd's mod of Exclusion 4)”, 17.3 nM.
Regarding “AUAUCAAGCAAGGAUAUGCAAAUGGUUAUUUAUGCAGAAGGUGCAACAUGAGGAUCACCCAUGUUUCUGGGUUU [JR_E6_Sub049] (Eterna round: R96, puzzle: Exclusion 6)”, the “apparent KD of MS2 coat protein” value amounted to 124 nM (input ligand: FMN 200 uM), 41.7 nM under setting [1] and 55.7 nM (input ligand: none).
“AUAUCAAGCAAGGAUAUGCAAAUGGUUAUUUAUGCAGAAGGUGCAACAUGAGGAUCACCCAUGUUUCUGGGUUU [JR_E6_Sub049] (puzzle: Exclusion 6)”: the “apparent KD of MS2 coat protein” value under setting [3] stood at 48.2 nM.
In the case of “AUAUCACAUGAGGAUCACCCAUGUCAGGAUAUCGACUGAACAGCUUCGGCUGUUCAGUCGAGAAGGGACAAUUA [Brourdxlusion 2 - Jieux - Exclusion 1] (Eterna round: R97, puzzle: Exclusion 1)”, the “apparent KD of MS2 coat protein” value amounted to 84.9 nM (input ligand: FMN 200 uM) and 56.2 nM (input ligand: none).
For the sequence “AUAUCGUGAGGAUAUCCAAUAUAUGACAUGAGGAUCACCCAUGUUUCCACUCGUACCUCCGGAGAAGGCACAGUUU [Ex5 #71] (Eterna round: R97, puzzle: Exclusion 5)”, the “apparent KD of MS2 coat protein” value came to 22.4 nM (input ligand: FMN 200 uM) and 32.2 nM (input ligand: none).
Take “AUAUGCAAGUAAAGAUCCUACAUGAGGAUCACCCAUGUGCUCGUCUUAUAAAGUACUAUCACGAAAGUGAUAGUACA [Mat - Sensor v3 - turn-off var 1 - Eli Mod - D84] (puzzle: Sensor v3, turn-off variant 1)”: the “apparent KD of MS2 coat protein” value by setting is: under setting [2], 215 nM; under setting [3], 15.6 nM; under setting [4], 170 nM.
Take “AUAUUACAUGAGGAUCACCCAUGUGAGGAUAUGGAGAGCGACCGCCCGGUCGCGUACACCAGAAGGCGCAGGCG [1st #59] (Eterna round: R97, puzzle: Exclusion 1)”: the “apparent KD of MS2 coat protein” value (input ligand: FMN 200 uM) is 85.7 nM and the “apparent KD of MS2 coat protein” value (input ligand: none) turned out to be 41.1 nM.
Regarding “AUAUUACAUGAGGAUCACCCAUGUGAGGAUAUGGAGCGAGACUGUCCUGUCGCGUACACCAGAAGGCGCGGGUG [1st #52] (Eterna round: R97, puzzle: Exclusion 1)”, the “apparent KD of MS2 coat protein” value (input ligand: FMN 200 uM) turned out to be 183 nM and the “apparent KD of MS2 coat protein” value (input ligand: none) is 118 nM.
In the case of “AUAUUGUGAGGAUAUGAACUUAGUAUCGAAAGAUACAAAGUUCAGAAGGCACAUGAGGAUCACCCAUGUUUCUC [Long static hairpin v7] (Eterna round: R97, puzzle: Exclusion 4)”, the “apparent KD of MS2 coat protein” value is, setting by setting: (input ligand: FMN 200 uM) 703 nM; (input ligand: none) 76.1 nM.
In the case of “AUAUUGUGAGGAUAUGAACUUAGUAUCGAAAGAUACUUAGUUCAGAAGGCACAUGAGGAUCACCCAUGUUUCUC [Long static hairpin v17] (Eterna round: R97, puzzle: Exclusion 4)”, the “apparent KD of MS2 coat protein” value (input ligand: FMN 200 uM) was found to be 883 nM and the “apparent KD of MS2 coat protein” value (input ligand: none) was found to be 69.8 nM.
Regarding “AUAUUGUGAGGAUAUGAACUUAGUAUCGAAAGAUAGUAAGUUCAGAAGGCACAUGAGGAUCACCCAUGUUUCUC [Long static hairpin v8] (Eterna round: R97, puzzle: Exclusion 4)”, the “apparent KD of MS2 coat protein” value reads like this: (input ligand: FMN 200 uM) 399 nM; (input ligand: none) 69.8 nM.
In the case of “AUCAGCUCGUGAGGAUAUACAUCACUGCUUCGGCAGUGUAUUAAGAUCACAUGAGGAUCACCCAUGUAGAAGGUACGAGCUGAU [ENG2/2-C3] (Eterna round: R96, puzzle: Exclusion NG 2)”, the “apparent KD of MS2 coat protein” value came to 215 nM (input ligand: FMN 200 uM), 20.8 nM under setting [1] and 26.1 nM (input ligand: none).
Consider “AUCAUAACCUAGGAUAUGUAGCAGCCCGCAGCGACAGAAGGAGGUACAUGAGGAUCACCCAUGUCCACUCCCGU [EX6 C.11] (Eterna round: R97, puzzle: Exclusion 6)”, for which the “apparent KD of MS2 coat protein” value runs as follows: (input ligand: FMN 200 uM) 12.4 nM; (input ligand: none) 11.8 nM.
For “AUCAUGGACGCAGGAUAUACAUGAGGAUCACCCAUGUAGUAUGAUCAGUGAUGGUCGUCGAUAGUGUAGAAGGGCGGCUAGUAG [random] (Eterna round: R96, puzzle: Exclusion NG 2)”, the “apparent KD of MS2 coat protein” value worked out at 34.4 nM (input ligand: FMN 200 uM), 24.2 nM under setting [1] and 32.8 nM (input ligand: none).
“AUCAUGUAAGGAUAUCUUACAUGUGACUUCGGUCACUGUCAAGAGAAGGUACAUGAGGAUCACCCAUGUAUGAC [Ex4-3: 51] (puzzle: Exclusion 4)”: the “apparent KD of MS2 coat protein” value under setting [3] was determined as 16.8 nM.
Regarding “AUCAUGUCAGGAUAUAUGACAUGGCUCUUCGGAGCAAGCUCAUAGAAGGGACAUGAGGAUCACCCAUGUAGAGC [Ex4-3: 22] (puzzle: Exclusion 4)”, the “apparent KD of MS2 coat protein” value under setting [3] is 22.1 nM.
For “AUCGAGAUAGGAUAUGCCCAAGUAAACAUGAGGAUCACCCAUGUGGGUCACCUCUUCACGGUAGAAGGGUUAGAUU [Eternabot (L1) Solution 90] (Eterna round: R97, puzzle: Exclusion 5)”, the “apparent KD of MS2 coat protein” value runs as follows: (input ligand: FMN 200 uM) 62 nM; (input ligand: none) 81.8 nM.
For “AUCGUACAGCAAAGCUGUACGAGUACAUGAGGAUCACCCAUGUAGGAUAUGGUACGCAAAGCGUGCUAGAAGGAUAUGAGAUUU [Mat - Exclusion NG 3 - Mod of JL - D101] (Eterna round: R96, puzzle: Exclusion NG 3)”, the “apparent KD of MS2 coat protein” value came out at 48.5 nM (input ligand: FMN 200 uM), 30.4 nM under setting [1] and 48.7 nM (input ligand: none).
In the case of “AUCGUGUUAGGAUAUACACGACGCUGGGUAGCGGGCGGAGGGUAGAAGGGACAUGAGGAUCACCCAUGUUCGGG [Somalaesar] (Eterna round: R97, puzzle: Exclusion 4)”, the “apparent KD of MS2 coat protein” value runs as follows: (input ligand: FMN 200 uM) 41.2 nM; (input ligand: none) 46.6 nM.
“AUCUGCACGCUGCGGUCCUACAUGAGGAUCACCCAUGUGGUCUGGUGGCGUGGGUCACCGGACUUGGCUCGUCUUGC [salish99_S_TOV1_R5_054] (Eterna round: R97, puzzle: Sensor, turn-off variant 1)”: the “apparent KD of MS2 coat protein” value reads like this: (input ligand: FMN 200 uM) 19.8 nM; (input ligand: none) 19.6 nM.
Turning to “AUCUUGUCAGGAUAUCUUACAUAACAAUCGUAGUUACCAUUGGAGAAGGGACAUGAGGAUCACCCAUGUUAGCC [tap-tap-tappy42] (Eterna round: R97, puzzle: Exclusion 4)”, the “apparent KD of MS2 coat protein” value (input ligand: FMN 200 uM) is 20.8 nM and the “apparent KD of MS2 coat protein” value (input ligand: none) stood at 19.8 nM.
Consider “AUGAACAAGCUUUUUGCAAACAUGAGGAUCACCCAUGUCUUAUAUCGUACCAUGCUAGGCCCUAGCAUGGUACGAUU [jl sellena mod 2] (Eterna round: R97, puzzle: Sensor, turn-off variant 1)”, for which the “apparent KD of MS2 coat protein” value was 17.6 nM (input ligand: FMN 200 uM) and 14.6 nM (input ligand: none).
